Measured values from publication PMC7840130 (Science Advances, 2021).
Read-outs that look alike come from different tables or passages of the source. Each block holds one molecule with its values, some of them ahead of it.

Tests used:
[1] = molecular target: BcsQ (in the Bcs macrocomplex) (E. coli 1094) (UniProt P37655); experiment: cryo-EM structure
BcsQ^His (E. coli 1094) = BcsQ^His (E. coli 1094) (UniProt P37655); experiment: crystal structure
cryo-EM structure [2] = molecular target: the molecule itself; experiment: cryo-EM structure
[3] = molecular target: T1, BcsA^HA-FLAG (in the Bcs macrocomplex) (E. coli 1094, UniProt P37653 1-872); experiment: cryo-EM structure
T1 sequence (looked up): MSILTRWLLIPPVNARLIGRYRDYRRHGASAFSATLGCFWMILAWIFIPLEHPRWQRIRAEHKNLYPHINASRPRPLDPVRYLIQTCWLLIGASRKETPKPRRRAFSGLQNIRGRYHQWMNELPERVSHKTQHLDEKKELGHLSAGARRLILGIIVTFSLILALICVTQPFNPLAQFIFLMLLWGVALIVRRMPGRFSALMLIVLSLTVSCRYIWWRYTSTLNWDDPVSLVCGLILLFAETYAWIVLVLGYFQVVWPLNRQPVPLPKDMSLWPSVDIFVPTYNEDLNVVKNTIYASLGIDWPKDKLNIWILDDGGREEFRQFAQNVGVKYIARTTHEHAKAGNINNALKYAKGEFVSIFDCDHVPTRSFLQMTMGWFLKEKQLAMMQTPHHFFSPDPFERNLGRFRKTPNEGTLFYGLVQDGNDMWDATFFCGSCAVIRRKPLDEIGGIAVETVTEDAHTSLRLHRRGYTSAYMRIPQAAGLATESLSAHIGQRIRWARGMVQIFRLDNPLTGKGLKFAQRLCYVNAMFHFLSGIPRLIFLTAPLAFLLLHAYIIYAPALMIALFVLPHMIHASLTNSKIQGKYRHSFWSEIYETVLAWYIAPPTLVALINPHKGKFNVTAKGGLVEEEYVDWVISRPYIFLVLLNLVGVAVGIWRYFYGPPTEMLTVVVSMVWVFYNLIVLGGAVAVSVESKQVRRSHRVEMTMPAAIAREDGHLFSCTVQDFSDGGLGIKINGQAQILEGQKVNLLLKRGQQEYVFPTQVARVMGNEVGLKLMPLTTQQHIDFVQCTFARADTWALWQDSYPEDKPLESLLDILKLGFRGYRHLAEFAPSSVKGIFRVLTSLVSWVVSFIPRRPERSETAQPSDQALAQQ

cryo-EM structure [4] = molecular target: the molecule itself; experiment: cryo-EM structure; remark: listed apart in the source

- stoichiometry N [1]: 2
Molecule: BcsQ (in the Bcs macrocomplex) (from UniProt P37655 1-242) (natural protein)

- stoichiometry N (BcsQ^His (E. coli 1094)): 2
Molecule: BcsQ^His (from UniProt P37655 1-242) (natural protein)

- binding result [3]: binds
B1: BcsB (in the Bcs macrocomplex) (natural protein, E. coli 1094, UniProt P37652 26-779, looked up)
chain: TPATQPLINAEPAVAAQTEQNPQVGQVMPGVQGADAPVVAQNGPSRDVKLTFAQIAPPPGSMVLRGINPNGSIEFGMRSDEVVTKAMLNLEYTPSPSLLPVQSQLKVYLNDELMGVLPVTKEQLGKKTLAQMPINPLFISDFNRVRLEFVGHYQDVCEKPASTTLWLDVGRSSGLDLTYQTLNVKNDLSHFPVPFFDPSDNRTNTLPMVFAGAPDVGLQQASAIVASWFGSRSGWRGQNFPVLYNQLPDRNAIVFATNDKRPDFLRDHPAVKAPVIEMINHPQNPYVKLLVVFGRDDKDLLQAAKGIAQGNILFRGESVVVNEVKPLLPRKPYDAPNWVRTDRPVTFGELKTYEEQLQSSGLEPAAINVSLNLPPDLYLMRSTGIDMDINYRYTMPPVKDSSRMDISLNNQFLQSFNLSSKQEANRLLLRIPVLQGLLDGKTDVSIPALKLGATNQLRFDFEYMNPMPGGSVDNCITFQPVQNHVVIGDDSTIDFSKYYHFIPMPDLRAFANAGFPFSRMADLSQTITVMPKAPNEAQMETLLNTVGFIGAQTGFPAINLTVTDDGSTIQGKDADIMIIGGIPDKLKDDKQIDLLVQATESWVKTPMRQTPFPGIVPDESDRAAETRSTLTSSGAMAAVIGFQSPYNDQRSVIALLADSPRGYEMLNDAVNDSGKRATMFGSVAVIRESGINSLRVGDVYYVGHLPWFERVWYALANHPILLAVLAAISVILLAWVLWRLLRIISRRRLNPDNE
- stoichiometry N (cryo-EM structure [2]): ≤ 6

B2: full-length E. coli BcsB^His (natural protein, E. coli 1094, UniProt P37652 26-779, looked up)
chain: B1 chain
- stoichiometry N (cryo-EM structure [4]): 8
